Laboratory results from paper PMC5014153, “Overexpression of an Arabidopsis cysteine-rich receptor-like protein kinase, CRK5, enhances abscisic acid sensitivity and confers drought tolerance”.

T1: 6xHis-WRKY40 (Arabidopsis thaliana, UniProt Q9SAH7 1-302)
T1 sequence: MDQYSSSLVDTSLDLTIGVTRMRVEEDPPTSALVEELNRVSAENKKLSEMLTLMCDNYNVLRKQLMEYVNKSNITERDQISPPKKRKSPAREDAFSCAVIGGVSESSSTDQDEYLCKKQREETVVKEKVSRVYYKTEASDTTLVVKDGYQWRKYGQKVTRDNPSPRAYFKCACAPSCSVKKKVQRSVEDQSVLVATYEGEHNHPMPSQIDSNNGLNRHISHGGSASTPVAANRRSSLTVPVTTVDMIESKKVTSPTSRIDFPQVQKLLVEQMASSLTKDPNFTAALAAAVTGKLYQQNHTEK


Experiments:
Experiment in all cases: EMSA; 25 mM Hepes pH 8.0, 40 mM KCl, 5 mM MgCl2, 1 mM DTT, 1 mM EDTA, 8% glycerol; 50 ng protein, 20 fmol probe; 30 min at 28 C; native PAGE
[1] = molecular target: 6xHis-WRKY60 (Arabidopsis thaliana, UniProt Q9SK33 1-271); details: protein: recombinant, tags: N-terminal Trx, HRV 3C site (pET48b), label: 5' biotin on each strand, blunt
Chain of 6xHis-WRKY60 (Q9SK33 whole entry): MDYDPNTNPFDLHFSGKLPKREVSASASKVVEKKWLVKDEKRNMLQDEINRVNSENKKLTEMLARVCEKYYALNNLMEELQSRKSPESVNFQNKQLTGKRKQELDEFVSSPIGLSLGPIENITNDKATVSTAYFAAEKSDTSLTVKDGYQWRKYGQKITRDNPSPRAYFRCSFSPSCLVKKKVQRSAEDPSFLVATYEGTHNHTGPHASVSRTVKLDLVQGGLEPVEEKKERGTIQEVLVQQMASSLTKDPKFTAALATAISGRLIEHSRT

[2] = molecular target: 6xHis-WRKY18 (Arabidopsis thaliana, UniProt Q9C5T4 1-310); details: protein: recombinant, tags: N-terminal Trx, HRV 3C site (pET48b), chain copies: 2, label: 5' biotin on each strand, blunt
Chain of 6xHis-WRKY18 (Q9C5T4 whole entry): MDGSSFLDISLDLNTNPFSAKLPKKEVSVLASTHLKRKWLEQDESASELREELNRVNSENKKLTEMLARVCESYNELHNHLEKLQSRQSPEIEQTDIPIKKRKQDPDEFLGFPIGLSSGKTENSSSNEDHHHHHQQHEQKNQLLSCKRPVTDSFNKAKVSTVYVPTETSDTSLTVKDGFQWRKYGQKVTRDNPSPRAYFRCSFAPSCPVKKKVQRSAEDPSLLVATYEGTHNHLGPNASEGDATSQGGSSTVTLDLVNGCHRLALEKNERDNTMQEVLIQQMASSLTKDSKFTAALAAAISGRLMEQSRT

[3] = molecular target: T1, 6xHis-WRKY40; details: protein: recombinant, tags: N-terminal Trx, HRV 3C site (pET48b), label: 5' biotin on each strand, blunt

Binder | binding result [1] | binding result [2] | binding result [3]
ProCRK5-1 (dsDNA) DNA 1: TTGATGTTACTCGTCTAGTTGACCTTGACTTGCAAGATATTGTATTATTTTACAAAAACCAAAATTTGACTGGCTTGGCT DNA 2: AGCCAAGCCAGTCAAATTTTGGTTTTTGTAAAATAATACAATATCTTGCAAGTCAAGGTCAACTAGACGAGTAACATCAA | no binding | binds | binds
ProCRK5-1 mW1 (dsDNA) DNA 1: TTGATGTTACTCGTCTAGTTGACCTTGACTTGCAAGATATTGTATTATTTTACAAAAACCAAAATTTAAATGGCTTGGCT DNA 2: AGCCAAGCCATTTAAATTTTGGTTTTTGTAAAATAATACAATATCTTGCAAGTCAAGGTCAACTAGACGAGTAACATCAA |  | binds | binds
